According to the nanobody polyreactivity screen of Harvey et al. (2022):

Test: yeast display, Sf9 membrane polyspecificity reagent, FACS + sequencing; frameworks hold sequencing errors
How it was run: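 Nanobodies came from a synthetic yeast display library in Saccharomyces cerevisiae BJ5465, induced with galactose for 36–48 hours and stained for 1 hour at 4 °C with 10% biotinylated, detergent-solubilized Sf9 membrane reagent. Cells were enriched on streptavidin microbeads and then FACS-sorted, with low and high (top ~1%) gates set on anti-HA fluorescence for expression and streptavidin fluorescence for reagent binding. Each polyreactivity label reflects the gate a clone came from. Genes were amplified by colony PCR, sequenced by MiSeq 2 × 250 and filtered by CDR length.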

Row | Sequence | polyreactivity (PSR sort gate)
1 | QVQLVESGGGLVQAGGSLRLSCAASGSIFTTYTMGWYRQAPGKERELVAAITAGGGTTYYADSVKGRFTISRDNAKNTVYLQMNSLKPEDTAVYYCAAANSFYYIATGEYDYWGQGTQVTVSS | high polyreactivity
2 | QVQLVESGGGLVQAGGSLRLSCAASGRIFYSYAMGWYRQAPGKERELVAAIRSTGSTNYADSVKGRFTISRDNAKNTVYLQMNSLKPEDTAVYYCAARTSYRSSLYGYWGQGTQVTVSS | high polyreactivity
3 | QVKLVESGGGLVQAGGSHRLSCAASGSIFGDYVMGSYRQAPGKEMELVAAINRGGSTYYADSVKGRFTISRDNAKNTVYLQMNSLKPADTAVYYCAAGYPSWYYGYPYDSWGQGTQVTVSS | low polyreactivity
4 | QFQLVESGGGLVQAGGSLRLSCAASGSIFRGTAMGWYRQAPGKERELVAAINKSGGSTYYADSVKGRFTISRDNAKNTVYLQMNSLKPEDTAVYYCAARGYFWSSYKYDYWGQGTEVTVSS | high polyreactivity
5 | QVQLVESGGGLVQAGGTLRLSCAASGFTFSINAMGWSRQAPGKERELVAGISWSGGITYYADSVKGRFTISRDNAKNTVYLQMNSLKPEDTAVYYCNTDYGLTTPVVWDDYWGQGTQVTVSS | low polyreactivity
6 | QVQLVESGGGLVQAGGSLRLSCAASGFTIRYYAMGWYRQAPGKERELVAAISSSGGSTYYADSVKGRFTISRDNAKNTVYLQMNSLKTEDTAVYYCAAYYHGRMDYWGQGTQVTVSS | high polyreactivity
7 | QVQLVESGGGLVQAGGSLRLSCAASGFIFYYNAMGWYRQAPGKERELVAAISTDGGSTYYADSVKGRFTISRDNAKNTVYLQMNSLNPEDTAVYYCAAKRYKRYDYWGQGTQVTVSS | low polyreactivity
8 | QVQLVESGGGLVQAGGSLRLSCAASGSTFPSNAMGWYRQAPGKERELVAAITFRGGRTYYADSVKGRFTISRDNAKNTVYLQMNSLKPEDTAVYYCAAERWWYTVRGYGYWGQGTQVTVSS | high polyreactivity
9 | QVQLVESGGGLVQAGGSLRLSCAASGSIFYYYAMGWYRQAPGKERELVADISRSGTSTYYADSVKGRFTISRDNAKNTVYLQMNSLKPEDTAVYYCNVLRVKSITYLMDYWGQGTQVTVSS | high polyreactivity
10 | QVQLVESGGGLVQAGGSLRLSCAASGSILYYNAMGWYRQAPGKERELVAAITSGGSTYADSVKGRFTISRDNAKNTVYLQMNSLKPEDTAVYYCAADLDWYLSDYGTSLEHDYWGQGTQVTVSS | low polyreactivity
11 | QVQLVESGGGLVQEGGSLRLSCAASGSTFPGNAMGWYRQAPGKERELVAAIRDRGTSTYYADSVKGRFTISRDNAKNTVYLQMNSLKPEDTAVYYCAAASRVAKGRWRLYDYWGQGTQVTVSS | high polyreactivity
12 | QVQLVESGGGLVQAGGSLRLSCAASGITFLDNDMGWYRQAPVKERELVAAITSGVSTYYADSVKGRFTISRDNAKNTVYLQMNSLKPEDTAVYYCAADRPDVAGDYGGQGTQVTVSS | low polyreactivity
13 | QVQLVESGGGLVQAGGSLRLSCAASGFIFRRYAMGWSRPAPGNERELVAAITWSGGSTYYADSVKGRFTISRDNAKNTVYLQMNSLKPEDTAVYYCAAVYRQSGDYYSRDYYWGQGTQVTVSS | high polyreactivity
14 | QVQLVESGGGLVQAGGSLRLSCAASGFTFNDYAMGWYRQAPGKERELVAAIDWSGGRTYYADSVKGRFTISRDNAKNTVYLQLNSLKPEDTAVDYCAVEDLSHAYVQHYRYGYGYWGQGTQVTVSS | low polyreactivity
15 | QVQLVESGGGLVQAGGSLRLSCAASGSTFESNAMGWYRQAPGKERELVAAISRGGNTYYADSVKGRFTISRDNAKITVYLQMNSLKPEDTAVYYCNVDRGKPVPPSEYWGQGTQVTVSS | low polyreactivity
16 | QVQLVESGGGLVQAGGSLRLSCAASGRTFAHYTMGWYRQEPGKERELVAGITRGGSTYYADSVKGRFTISRDNAKNNVYLQMNSVKPEDTAVYYCNAVTNYFYRRMEYWGQGTQVTVSS | high polyreactivity
17 | QVQLVESGGGLVQAGGSLRLSCAASGSILTYNFMGWYRQAPGKERELVASISWSGGRTYYADSVKGRFTISRDNAKNTVYLQMNSLKPEDTAAAYCAVSQSWYWYYASDYWGQGTQVTVSS | low polyreactivity
18 | QVQLVESGGGLVQEGGSLRLSCAASGIIFYYNAMGWYRQAPGKERELVARITWRAGSTYYADSVKGRFTISRDNAKNTVYLQMNSLKPEDTAVYYCNADHDGLGYYYWGQGTQVTVSS | high polyreactivity
19 | QVQLVESGGGLVQAGGSLRLSCAPSVRIFGTNAMGWYRQAPGTERELVADITSGGSTNYADSVKGRFTISRDNAKNTVYLQMISLKPEDTAVYYCAADVIGDLRWYRDEYWGQGTQVTVSS | low polyreactivity
20 | QVQLVESGGGLVQAGGSLRLSCAASGIIFRANAMGWYRQAPGKERELDAAISGRGSSTTYADSVKGRFTISRDNAKNTVYLQINSLKPEDTAVYYCAARLPYNNQVPGYYWGQGTQVTGSS | high polyreactivity
21 | QVQLVESGGGLVQAGGSLRLSCAASGRIFKNYAMGWYRQAPGKERELVAAITWSGGRTYYADSVKGRFTISRDNAKNTVYLQMNSLKPEDTAVYYCATAARRGPNSIEPFGYGSWGQGTQVTVSS | high polyreactivity
22 | QVQLVESGGGLVQAGGSLRLSCAASGSIFWLYAMGWYRQAPGKERELVAAMSWSGTSTNYADSVKGRFTISRDIAKNTVYLQMNRLKPEDTAVYYCAKRWNNQKLFGYEEEYDYWGQGTQVTGSS | low polyreactivity

Row | Sequence | polyreactivity (PSR sort gate)
23 | QVQHEETGGGLVQAGGSLRLSCAASGSTYRKNSMGWYRPAPGKERAFVAAISRSGGSTYYADSVKGRFTISRDNAKNTVYLQMNSLKPEDTAVYYCAASYYQHQYSYELGDYWGQGTQVTVSS | low polyreactivity
24 | QVQLVESGGGLVQAGGSLRLSCAASGSIFKVYAMGWYRQAPGKEREFVAAITSSDSNTNYADSVKGRFTISRDNAKNTDYLQMNSLKPEDTAVYYCNARIYTRRYVPHYGFNYWGQGTQVTVSS | low polyreactivity
25 | QLQRVESGGGLVQAGGSLRLSCAASGSIFSPYAMGWYRQAPGKERELVAAISTRGGNTYYADSVKGRFTISRDNAKNTVYLQMNSLKPEDTAVYYCARKIRREGRYDYWGQGTQVTVSS | high polyreactivity
26 | QVQLVESGGGLVQAGGSLRLSCAASGIIFSFYAMGWYRQAPGKERELVADITLSGGRTYYADSVKGRFTISRDNAKNTVYLQMNSLKPEDTAVYYCNADTYERGDYWGQGTQVTVSS | high polyreactivity
27 | QVQLVESGGGLVQAGGSLRLSCAASGSTFYRYAKGRYRQPPGKERELVASITRNVGSTYYADSVKGRFTISRDNAKNTVYLQMKSVKPEDTAVYFCAAKSGSFVHGGYQTPVYGSDYWGQGSQVTVSS | high polyreactivity
28 | QAELVESGGGLVQAGGSLRLSCAASGLTFRAYAMGGYRQAPGKERELVAAISWNGGSTYYADSVKGRFTISRDNAKNTVYLQMNCLKPEDTAVYYCNAYDYQYFYGYEYDYWGQGTQVTVSS | high polyreactivity
29 | QVQLVESGRGLVQAGGSLRLSCAASGRIFFRYAMGWYRQAPGKAMELVAALPKSGGSTYADSVKGRFTISRDNAKTTVSLQMNSLKPEDTAVDDCATETTHYRDSGYIVKYRSEYWGQGTQVTVSS | low polyreactivity
30 | QVQLVESGGGLVQAGGSLRLSCAASGRISIWYDMGWYIQAPGKEREFVASITSGGSTYADSVKGRFTISRDNAKNTVYLQMNSLKPEDTAVYYCAADEAPYVPSEQRHSRFSHWGQGTQVTVSS | low polyreactivity
31 | QVQLVESGGGLVQAGGSLRLSCAASGSTFEPYVMGWYRQAPGKERELVAAITYSGGRTYYADSVKGRFTISRDNAKNTVYLQMNSLKPEDTAVYYCAKVDRSYGYSRYWFKYGYWGQGTQVTVSS | low polyreactivity
32 | QVHLVESGGGLVQAGGSLRLSCAAYGRNFQYNAMGWDRQAPGKEREFVASISGSGGRTYYADSVKGRFTISRDNAKNTVYLQMNSLKPEDTAVYYCNASLLFPLLYGPESGEFDYWGQGSQVTVSS | low polyreactivity
33 | QVQLVESGGGLVQAGGSLRLSCAASGIISYLYAMGCYRQAPGKEREWVAVIRTSDAITYYADSVKGRFTISRDNAKNTVYLQMNSLKPQDTAVYYCAAAGYAWWGEYEYWGQGTLVTVSS | high polyreactivity
34 | QVQLVESGGFLDQAGGSLRLSCAASGFTFYYYAMGWYRQAHAKERELVAAITARGVSTYYADSVKGRFTISRDNAKNTVYLQMNRLNPEDTAVYYCAKRRYYYAPAIPGYYYWGQGTKVTVSS | high polyreactivity
35 | KVQLVESGGCLVQAGGSLSLSCAASGSIFAVYAMGWYRQAPGKERELVAAITLSGGSTYAYSVKGRFTISRDNAKNTFYLQMKSLKPEDTAVYYCNAVSANYDYVDYEYWGQGTQVNVSS | low polyreactivity
36 | QVQLVESGGGLVEGGGSLRLSCAASGFTFGRYTMGWYRQATGKERELVAAISWSGGSTYYADSVKGRFTISRDNAKNTVYLQLNSLKQEDTAVYNCATRLKSVSGGYNYWGQGTQVTVSS | high polyreactivity
37 | QVQLVESGGGLVQAGGSLRLSCAASGSIFKSNAMGWYRQAPGKERELVAAISNGGITNYADSVKGRFTISRDNAKNTVYLQMNSLKPEDTAVYYCATSDVREIWVDYWGQGTQVTVSS | low polyreactivity
38 | QVQLVESGGGLVQGGGSLRLSFAGSGFTFGRYLMGWYSQAPGKERELVAAISRSGGSTHYADSVKGRFTISRDYAMNHFYLQMNSLKPEDTAVYYCAAASPRWPGQGDYWGQGTQVTVSS | high polyreactivity
39 | QVQLVESGGGLVQAGGSLRLSCAASGRIFGPYAMGWYRQAPGKERELVAAISWSGGSTYYADSVKGRFTISRDNAKNTVFLQMNSLKPEDTAVYYCAARERRVYGDRFYKLDYWGQGTQVTVSS | high polyreactivity
40 | QVQLVESGGGLVQAGGSLRLSCAASGRTFYKNAMGWYRQAPGKERELVAAISQRGGGTYYADSVKGRFTISRDNAKNTVYLQMNSLKPEDTAVYYCNAPLVFIHGSDYWGQGTQVTVSS | high polyreactivity
41 | QVQLVESGGGLVQAGGSLRLSCAASGRIFDYNAMGWYRQAPGKERELVAAITKDDGSTYYADSVKGRFTISRDNAKNTVYLQMNSLKPEDTAVYYCAAEFYWTYVDIWYDYWGQGTQVTVSS | low polyreactivity
42 | QVQLVESGGGIVQAGGSLRLSSAASGLTFAYNTMGWYRQAPGIEREFVASISSSGGNTYYADSVKGRFTISRDNAKNTVYLQMHSLKPEDTAVYYCAAKKKYHYVATYKRFENWGQGTHVTVSS | low polyreactivity
43 | QVQLVESGGGLVQAGGSLRLSCAASGITIYHNAMGWYRPAPGKERELVAAISWSGGSTYYADSVKGRFTISRDNANNTVYLQMNSLKPEDSAVYYCAAYQRVREGHDYEYWGQGTQVSVSS | high polyreactivity
